The record followed here is article PMC3993263.

Series [1] deals with T1, RaaS (UniProt O86312).
T1 sequence: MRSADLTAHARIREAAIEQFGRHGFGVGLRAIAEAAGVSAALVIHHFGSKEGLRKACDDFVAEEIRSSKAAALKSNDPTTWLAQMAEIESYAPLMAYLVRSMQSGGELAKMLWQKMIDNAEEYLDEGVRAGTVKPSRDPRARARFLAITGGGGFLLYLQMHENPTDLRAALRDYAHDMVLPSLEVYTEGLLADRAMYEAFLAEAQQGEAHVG
The experiment in a line: fluorescence anisotropy. The settings on record: anisotropy: 50 mM Tris-HCl pH 8.5, 150 mM NaCl, temperature not stated.

Series [2] deals with T2, RaaS (UniProt O86312 1-212).
T2 sequence: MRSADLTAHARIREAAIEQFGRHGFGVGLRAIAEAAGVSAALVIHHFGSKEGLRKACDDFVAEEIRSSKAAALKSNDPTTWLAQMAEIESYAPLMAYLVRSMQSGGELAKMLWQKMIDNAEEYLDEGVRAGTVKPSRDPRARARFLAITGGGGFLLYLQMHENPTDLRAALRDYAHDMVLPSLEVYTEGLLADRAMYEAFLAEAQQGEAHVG
The experiment in a line: EMSA; 20 nM DNA, 170 nM RaaS; […]; anisotropy: 50 mM Tris-HCl pH 8.5, 150 mM NaCl; temperature not stated. The settings on record: protein: recombinant; tags: 6xHis (pET15-Tev); chain copies: 2; label: 32P; 5' overhang 3 nt on both strands. (In general: Mobility shift assays separate free from complexed probe on a gel.)

With “labeled RaaS-site oligonucleotide (anisotropy)”, in series [1], the Kd (commonly the equilibrium constant for the complex coming apart) turned out to be 31 nM.

B1: M6 (single repeat) (dsDNA)
DNA 1: GGGTGAACATGCGTTCA
DNA 2: GGGTGAACGCATGTTCA
B1: the binding result in series [2] was “no binding”.

B2: M5 (dsDNA)
DNA 1: GGGATGAACGTACGAAAAATATCCTGAACATGCGTTCAG
DNA 2: GGGCTGAACGCATGTTCAGGATATTTTTCGTACGTTCAT
With B2, the binding result in series [2] was “no binding”.
